Source: patent publication US12377158
Positions of bridges follow the written chain, without caps; N, C: chain ends. No end group written: not given here.

What was measured:
[1] = molecular target: Native human Albumin Protein (human) (UniProt P02768); experiment: SPR (Nicoya OpenSPR), human albumin immobilised on COOH chip, mouse klotho as analyte at 0-40 nM
canine albumins (canine) = canine albumins (canine) (UniProt P49822); experiment: method not stated
Chain of UniProt P49822 (P49822 25-608 limits assumed): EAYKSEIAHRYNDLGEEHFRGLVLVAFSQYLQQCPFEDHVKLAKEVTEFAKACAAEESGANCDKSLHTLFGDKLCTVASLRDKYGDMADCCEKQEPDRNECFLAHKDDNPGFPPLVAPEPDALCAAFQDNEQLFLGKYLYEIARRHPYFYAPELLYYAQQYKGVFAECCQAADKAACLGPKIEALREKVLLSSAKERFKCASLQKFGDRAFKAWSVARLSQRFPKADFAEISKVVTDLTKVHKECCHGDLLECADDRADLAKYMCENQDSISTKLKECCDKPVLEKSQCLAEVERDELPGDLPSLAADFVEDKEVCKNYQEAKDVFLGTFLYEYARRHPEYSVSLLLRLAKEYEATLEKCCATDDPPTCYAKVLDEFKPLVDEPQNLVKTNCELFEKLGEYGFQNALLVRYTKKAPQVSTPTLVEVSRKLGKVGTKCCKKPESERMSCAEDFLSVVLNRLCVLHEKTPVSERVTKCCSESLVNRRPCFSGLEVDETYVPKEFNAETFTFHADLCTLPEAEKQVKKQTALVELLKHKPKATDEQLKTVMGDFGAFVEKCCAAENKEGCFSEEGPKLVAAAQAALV

| Kd [1] | koff [1] | kon [1] | Kd (canine albumins (canine)) | Molecule |
| --- | --- | --- | --- | --- |
| 7.94 nM | 0.00681 s⁻¹ | 858000 M⁻¹ s⁻¹ |  | Mouse klotho protein (from UniProt O35082 35-982) |
|  |  |  | < 19 nM | GGSGGSGGSGGRLIEDICLPRWGCLWEDD (peptide, not shown: small tags and cut ends, disulfide 18-24 (inferred); also: fused to alpha Klotho, terminus not given here) [alpha Klotho with the albumin binding construct … (SEQ ID NO: 4) attached to the terminal end] |
